From patent US20120225828A1 (PALATIN TECHNOLOGIES, published 2012) come the findings set out here.

Bridge positions count the residues as written; N and C are the ends. Square brackets hold non-standard residues; d marks the D form. dPhe(4-Me) = Cc1ccc(C[C@@H](N)C(=O)O)cc1; dPhe(4-F) = N[C@H](Cc1ccc(F)cc1)C(=O)O; 1Nal = N[C@@H](Cc1cccc2ccccc12)C(=O)O; 2Nal = N[C@@H](Cc1ccc2ccccc2c1)C(=O)O; d1Nal = N[C@H](Cc1cccc2ccccc12)C(=O)O; d2Nal = N[C@H](Cc1ccc2ccccc2c1)C(=O)O; Cit = NC(=O)NCCC[C@H](N)C(=O)O; Nle = CCCC[C@H](N)C(=O)O; Orn = NCCC[C@H](N)C(=O)O; Dab = NCC[C@H](N)C(=O)O; Dap = NC[C@H](N)C(=O)O

B1: Ac-Nle-cyclo(Glu-His-D-Phe-Ala-Dab)-NH2 (peptide)
peptide: Ac-[Nle]EH[dF]A[Dab]-NH2
modifications: lactam 2-6
SMILES: CCCC[C@H](NC(C)=O)C(=O)N[C@H]1CCC(=O)NCC[C@@H](C(N)=O)NC(=O)[C@H](C)NC(=O)[C@@H](Cc2ccccc2)NC(=O)[C@H](Cc2c[nH]cn2)NC1=O
B2: Ac-Nle-cyclo(Glu-His-D-Phe-Arg-Dab)-Lys-NH2 (peptide)
peptide: Ac-[Nle]EH[dF]R[Dab]K-NH2
modifications: lactam 2-6
SMILES: CCCC[C@H](NC(C)=O)C(=O)N[C@H]1CCC(=O)NCC[C@@H](C(=O)N[C@@H](CCCCN)C(N)=O)NC(=O)[C@H](CCCNC(=N)N)NC(=O)[C@@H](Cc2ccccc2)NC(=O)[C@H](Cc2c[nH]cn2)NC1=O
B3: Ac-Nle-cyclo(Asp-His-D-Phe-Arg-Dap)-Trp-NH2 (peptide)
peptide: Ac-[Nle]DH[dF]R[Dap]W-NH2
modifications: lactam 2-6
SMILES: CCCC[C@H](NC(C)=O)C(=O)N[C@H]1CC(=O)NC[C@@H](C(=O)N[C@@H](Cc2c[nH]c3ccccc23)C(N)=O)NC(=O)[C@H](CCCNC(=N)N)NC(=O)[C@@H](Cc2ccccc2)NC(=O)[C@H](Cc2c[nH]cn2)NC1=O
B4: Ac-Nle-cyclo(Glu-His-D-Phe-Arg-Dab)-NH2 (peptide)
peptide: Ac-[Nle]EH[dF]R[Dab]-NH2
modifications: lactam 2-6
SMILES: CCCC[C@H](NC(C)=O)C(=O)N[C@H]1CCC(=O)NCC[C@@H](C(N)=O)NC(=O)[C@H](CCCNC(=N)N)NC(=O)[C@@H](Cc2ccccc2)NC(=O)[C@H](Cc2c[nH]cn2)NC1=O
B5: Ac-Nle-cyclo(Glu-His-D-Phe-Gly-Dab)-Trp-NH2 (peptide)
peptide: Ac-[Nle]EH[dF]G[Dab]W-NH2
modifications: lactam 2-6
SMILES: CCCC[C@H](NC(C)=O)C(=O)N[C@H]1CCC(=O)NCC[C@@H](C(=O)N[C@@H](Cc2c[nH]c3ccccc23)C(N)=O)NC(=O)CNC(=O)[C@@H](Cc2ccccc2)NC(=O)[C@H](Cc2c[nH]cn2)NC1=O
B6: Ac-Nle-cyclo(Glu-His-D-Phe-Ala-Dab)-Trp-NH2 (peptide)
peptide: Ac-[Nle]EH[dF]A[Dab]W-NH2
modifications: lactam 2-6
SMILES: CCCC[C@H](NC(C)=O)C(=O)N[C@H]1CCC(=O)NCC[C@@H](C(=O)N[C@@H](Cc2c[nH]c3ccccc23)C(N)=O)NC(=O)[C@H](C)NC(=O)[C@@H](Cc2ccccc2)NC(=O)[C@H](Cc2c[nH]cn2)NC1=O
B7: Ac-Nle-cyclo(Glu-Orn-D-Phe(4-Me)-Arg-Dab)-NH2 (peptide)
peptide: Ac-[Nle]E[Orn][dPhe(4-Me)]R[Dab]-NH2
modifications: lactam 2-6
SMILES: CCCC[C@H](NC(C)=O)C(=O)N[C@H]1CCC(=O)NCC[C@@H](C(N)=O)NC(=O)[C@H](CCCNC(=N)N)NC(=O)[C@@H](Cc2ccc(C)cc2)NC(=O)[C@H](CCCN)NC1=O
B8: Ac-Nle-cyclo(Glu-Pro-D-Phe-Arg-Dab)-Trp-NH2 (peptide)
peptide: Ac-[Nle]EP[dF]R[Dab]W-NH2
modifications: lactam 2-6
SMILES: CCCC[C@H](NC(C)=O)C(=O)N[C@H]1CCC(=O)NCC[C@@H](C(=O)N[C@@H](Cc2c[nH]c3ccccc23)C(N)=O)NC(=O)[C@H](CCCNC(=N)N)NC(=O)[C@@H](Cc2ccccc2)NC(=O)[C@@H]2CCCN2C1=O
B9: Ac-Nle-cyclo(Glu-Orn-D-Phe(4-F)-Arg-Dab)-NH2 (peptide)
peptide: Ac-[Nle]E[Orn][dPhe(4-F)]R[Dab]-NH2
modifications: lactam 2-6
SMILES: CCCC[C@H](NC(C)=O)C(=O)N[C@H]1CCC(=O)NCC[C@@H](C(N)=O)NC(=O)[C@H](CCCNC(=N)N)NC(=O)[C@@H](Cc2ccc(F)cc2)NC(=O)[C@H](CCCN)NC1=O
B10: Ac-Nle-cyclo(Glu-His-D-Phe-Arg-Dab)-Trp-OH (peptide)
peptide: Ac-[Nle]EH[dF]R[Dab]W-OH
modifications: lactam 2-6
SMILES: CCCC[C@H](NC(C)=O)C(=O)N[C@H]1CCC(=O)NCC[C@@H](C(=O)N[C@@H](Cc2c[nH]c3ccccc23)C(=O)O)NC(=O)[C@H](CCCNC(=N)N)NC(=O)[C@@H](Cc2ccccc2)NC(=O)[C@H](Cc2c[nH]cn2)NC1=O
B11: Ac-Nle-cyclo(Glu-His-D-Phe-Arg-Dab)-Ala-NH2 (peptide)
peptide: Ac-[Nle]EH[dF]R[Dab]A-NH2
modifications: lactam 2-6
SMILES: CCCC[C@H](NC(C)=O)C(=O)N[C@H]1CCC(=O)NCC[C@@H](C(=O)N[C@@H](C)C(N)=O)NC(=O)[C@H](CCCNC(=N)N)NC(=O)[C@@H](Cc2ccccc2)NC(=O)[C@H](Cc2c[nH]cn2)NC1=O

Sequence of human melanocortin-1 receptor hMCR-1 expressed by the human melanoma cell line HBL (Q01726 whole entry): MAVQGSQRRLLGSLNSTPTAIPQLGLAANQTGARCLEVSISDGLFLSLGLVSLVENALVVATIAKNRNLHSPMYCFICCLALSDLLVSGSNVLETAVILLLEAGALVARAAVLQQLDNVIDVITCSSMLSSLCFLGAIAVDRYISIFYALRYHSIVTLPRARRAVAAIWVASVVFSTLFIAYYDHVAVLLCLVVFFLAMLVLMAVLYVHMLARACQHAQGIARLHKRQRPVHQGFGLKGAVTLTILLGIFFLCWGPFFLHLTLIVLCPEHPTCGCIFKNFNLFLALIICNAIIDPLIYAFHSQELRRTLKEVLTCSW

The assay concerns the target human melanocortin-1 receptor hMCR-1 expressed by the human melanoma cell line HBL (human, UniProt Q01726 1-317). Description: cell-based or functional assay.
In the case of B1, the “MC-1 EC50 (average; cAMP HBL)” value was found to be 44000 pM and the “MC-1 Emax (average; cAMP HBL)” value was 73%.
For Ac-[Nle][Dap]H[dF]R[Dab]W-NH2 (linker 2-6 via C(:O)‑(CH2)2‑C(:O)) [Ac-Nle-cyclo(Dap-His-D-Phe-Arg-Dab)-Trp-NH2 with bridge C(═O)-(CH2)2-C(═O)], in that order: 16 pM and 85%.
As to Ac-[Nle]EH[dF]R[Dab][2Nal]-NH2 (lactam 2-6) [Ac-Nle-cyclo(Glu-His-D-Phe-Arg-Dab)-Nal 2-NH2], the “MC-1 Emax (average; cAMP HBL)” value came out at 83%.
In the case of Ac-[Nle]E[Orn][dPhe(4-OMe)]R[Dab]-NH2 (lactam 2-6) [Ac-Nle-cyclo(Glu-Orn-D-Phe(4-OMe)-Arg-Dab)-NH2], the “MC-1 EC50 (average; cAMP HBL)” value came to 120 pM and the “MC-1 Emax (average; cAMP HBL)” value was determined as 99%.
Take Ac-[Nle]EH[dF]R[Dap]W-NH2 (lactam 2-6) [Ac-Nle-cyclo(Glu-His-D-Phe-Arg-Dap)-Trp-NH2]: the “MC-1 Emax (average; cAMP HBL)” value worked out at 91%.
For the molecule B2, the “MC-1 EC50 (average; cAMP HBL)” value was determined as 175 pM and the “MC-1 Emax (average; cAMP HBL)” value is 91%.
In the case of Ac-[dF]EH[dF]R[Dab]W-NH2 (lactam 2-6) [Ac-D-Phe-cyclo(Glu-His-D-Phe-Arg-Dab)-Trp-NH2], the “MC-1 Emax (average; cAMP HBL)” value amounted to 75%.
On to B3, for which the “MC-1 EC50 (average; cAMP HBL)” value came to 195 pM and the “MC-1 Emax (average; cAMP HBL)” value came to 88%.
For Ac-[Nle][Dab]H[dF]R[Dap]W-NH2 (linker 2-6 via C(:O)‑(CH2)2‑C(:O)) [Ac-Nle-cyclo(Dab-His-D-Phe-Arg-Dap)-Trp-NH2 with bridge C(═O)-(CH2)2-C(═O)], in that order: 6 pM and 78%.
In the case of Ac-[Nle]E[Orn][dF]R[Dab]W-NH2 (lactam 2-6) [Ac-Nle-cyclo(Glu-Orn-D-Phe-Arg-Dab)-Trp-NH2], the “MC-1 Emax (average; cAMP HBL)” value came to 109%.
With B4, the “MC-1 EC50 (average; cAMP HBL)” value worked out at 320 pM and the “MC-1 Emax (average; cAMP HBL)” value was found to be 85%.
Ac-[Nle]E[Dab][dF]R[Dab]W-NH2 (lactam 2-6) [Ac-Nle-cyclo(Glu-Dab-D-Phe-Arg-Dab)-Trp-NH2]: the “MC-1 Emax (average; cAMP HBL)” value is 108%.
As for Ac-[Nle]EH[dF]R[Dab][1Nal]-NH2 (lactam 2-6) [Ac-Nle-cyclo(Glu-His-D-Phe-Arg-Dab)-Nal 1-NH2], the “MC-1 Emax (average; cAMP HBL)” value turned out to be 72%.
Turning to B5, the “MC-1 EC50 (average; cAMP HBL)” value came to 4000 pM and the “MC-1 Emax (average; cAMP HBL)” value is 59%.
Consider Ac-[Nle]EA[dF]R[Dab]W-NH2 (lactam 2-6) [Ac-Nle-cyclo(Glu-Ala-D-Phe-Arg-Dab)-Trp-NH2], for which the “MC-1 Emax (average; cAMP HBL)” value came to 86%.
For B6, the “MC-1 EC50 (average; cAMP HBL)” value stood at 115 pM and the “MC-1 Emax (average; cAMP HBL)” value turned out to be 72%.
The corresponding values for B7 are 76 pM and 96%.
Take Ac-[Nle]EH[dF]R[Dab][dW]-NH2 (lactam 2-6) [Ac-Nle-cyclo(Glu-His-D-Phe-Arg-Dab)-D-Trp-NH2]: the “MC-1 Emax (average; cAMP HBL)” value was 93%.
Regarding B8, the “MC-1 EC50 (average; cAMP HBL)” value came to 180 pM and the “MC-1 Emax (average; cAMP HBL)” value worked out at 97%.
In the case of Ac-[Nle]ER[dF]R[Dab]W-NH2 (lactam 2-6) [Ac-Nle-cyclo(Glu-Arg-D-Phe-Arg-Dab)-Trp-NH2], the “MC-1 Emax (average; cAMP HBL)” value came to 100%.
Ac-[Nle][Dap]H[dF]R[Dap]W-NH2 (linker 2-6 via C(:O)‑(CH2)2‑C(:O)) [Ac-Nle-cyclo(Dap-His-D-Phe-Arg-Dap)-Trp-NH2 with bridge C(═O)-(CH2)2-C(═O)]: the “MC-1 EC50 (average; cAMP HBL)” value came to 7 pM and the “MC-1 Emax (average; cAMP HBL)” value was 70%.
For Ac-[Nle]E[Orn][dPhe(3,4-F)]R[Dab]-NH2 (lactam 2-6) [Ac-Nle-cyclo(Glu-Orn-D-Phe(3,4-F)-Arg-Dab)-NH2], in that order: 1000 pM and 97%.
For B9, in that order: 1000 pM and 102%.
For the molecule Ac-[Nle][Dab]H[dF]R[Dab]W-NH2 (linker 2-6 via C(:O)‑(CH2)2‑C(:O)) [Ac-Nle-cyclo(Dab-His-D-Phe-Arg-Dab)-Trp-NH2 with bridge C(═O)-(CH2)2-C(═O)], the “MC-1 Emax (average; cAMP HBL)” value was 92%.
Regarding Ac-[Nle]EH[dF]R[Dap]W-OH (lactam 2-6) [Ac-Nle-cyclo(Glu-His-D-Phe-Arg-Dap)-Trp-OH], the “MC-1 EC50 (average; cAMP HBL)” value was found to be 107 pM and the “MC-1 Emax (average; cAMP HBL)” value turned out to be 81%.
Ac-[Nle]EP[dF]R[Dab]-NH2 (lactam 2-6) [Ac-Nle-cyclo(Glu-Pro-D-Phe-Arg-Dab)-NH2]: the “MC-1 Emax (average; cAMP HBL)” value is 102%.
Same read-out and setting: under Ac-[Nle]EK[dF]R[Dab]W-NH2 (lactam 2-6) [Ac-Nle-cyclo(Glu-Lys-D-Phe-Arg-Dab)-Trp-NH2] stands 108%; under Ac-[Nle]E[Cit][dF]R[Dab]W-NH2 (lactam 2-6) [Ac-Nle-cyclo(Glu-Cit-D-Phe-Arg-Dab)-Trp-NH2], 97%.
Same read-out and setting: under B10 stands 79%; under Ac-[Nle]EH[dF]R[Dab]W-NH2 (lactam 2-6) [Ac-Nle-cyclo(Glu-His-D-Phe-Arg-Dab)-Trp-NH2], 95%.
Take B11: the “MC-1 EC50 (average; cAMP HBL)” value is 8 pM and the “MC-1 Emax (average; cAMP HBL)” value came out at 97%.
With Ac-[Nle]EH[dF]R[Dab][d2Nal]-NH2 (lactam 2-6) [Ac-Nle-cyclo(Glu-His-D-Phe-Arg-Dab)-Nal 2-NH2 (SEQ ID NO: 14)], the “MC-1 Emax (average; cAMP HBL)” value was 69%.
On the same count and under the same terms, then Ac-[Nle]EH[dF]R[Dab][d1Nal]-NH2 (lactam 2-6) [Ac-Nle-cyclo(Glu-His-D-Phe-Arg-Dab)-D-Nal 1-NH2], with 73%.
